The target of experiment [1] is T1, SARS-CoV-1 RBD (Sino Biological) (SARS-CoV-1, UniProt P59594 306-527). The experiment can be described thus: ELISA, antigen coated on the plate, OD 405 nm. Background: In an ELISA, binding on a coated surface is turned into a signal by an enzyme label.
Experiment [2] deals with SARS-CoV-1 Spike (S) protein, strain SARS, on ExpiCHO cells (SARS-CoV (SARS-CoV-1), strain SARS, UniProt P59594 14-1255). The experiment can be described thus: flow cytometry, ExpiCHO cells expressing SARS-CoV-1 S; % positive cells.
Experiment [3] has as its target T2, SARS-CoV-2 Spike (S) protein, strain BetaCoV/Wuhan-Hu-1/2019, full length (SARS-CoV-2 Wuhan-Hu-1, UniProt P0DTC2 14-1273). Description: flow cytometry, ExpiCHO cells expressing SARS-CoV-2 S; % positive cells. (A flow cytometer gives signals particle by particle.)
Experiment [4] deals with T2, SARS-CoV-2 Spike (S) protein, strain ….
Experiment [5] addresses T3, His-tagged RBD of SARS-CoV-2 (SARS-CoV-2 BetaCoV/Wuhan-Hu-1/2019, UniProt P0DTC2 331-550).
In experiment [6] the target is T4, His-tagged RBD of SARS-CoV-1 (SARS-CoV-1, UniProt P59594 306-527).
The target in experiment [7] is T2, SARS-CoV-2 Spike (S) protein, strain …. Description: cell-based or functional assay.
The target in experiment [8] is T3, His-tagged RBD of SARS-CoV-2. This is another data set of the same source.
Experiment [9] deals with T4, His-tagged RBD of SARS-CoV-1. The source holds these as a separate data set.
Experiment [10] concerns the target T1, SARS-CoV-1 RBD (Sino Biological). The experiment can be described thus: BLI (Octet), antibody on protein A sensors, RBD in solution, global fit. (BLI is a label-free optical method that tracks binding on a fibre tip over time.)
In experiment [11] the target is SARS-CoV-2 RBD (produced in house in Expi-CHO cells; residues 331-550 of spike) (SARS-CoV-2 BetaCoV/Wuhan-Hu-1/2019, UniProt P0DTC2 331-550). Described as above.
The target in experiment [12] is T2, SARS-CoV-2 Spike (S) protein, strain …. The experiment can be described thus: cell-based or functional assay. The source holds these as a separate data set.
The target of experiment [13] is T1, SARS-CoV-1 RBD (Sino Biological). The experiment can be described thus: ELISA, antigen coated on the plate, OD 405 nm. The source holds these as a separate data set.

Where two headings read alike, the source gives them in different places. A value given as a limit tells only on which side of the number the result lay.

B1: S310-rIgG1-LS (antibody, V domains shown)
VH: QVQLVQSGAELKKPGSSVKVSCKASGGTFNSYSFNWVRQAPGQGLEWLGGIIPVLGTSNYAQKFQGRVAVTADEFTTTAYMELSSLRSEDTAVYYCATRTYDSSGYRPYYYGLDVWGQGTPVTVSS
VL: QSALTQPASVSGSPGQSITISCTGTSSDVGSYNLVSWYQQRPGKAPELMIYEVTKRPSGLSNRFSGSKSGNTASLTISGLQAEDEADYYCCSYAGSDTVIFGGGTKVTVL
Regarding B1, the binding result in experiment [1] was “no binding (tested: 5 µg/ml)”.

B2: S315 recombinant IgG1 (antibody, V domains shown)
VH: EVQLVESGGGLVQPGGSLRLSCAASGFTFSNYWMTWVRQAPGKGLEWVANIKQDGSEKYYVDSVKGRFTISRDNAKNSLYLQMNSLRAEDTAVYYCARDLWWNDQAHYYGMDVWGQGTTVTVSS
VL: SYELTQPPSVSVSPGQTARITCSGDAFPNQYAYWYQQKPGQAPVMLIYKDSERPSGIPERFFGSSSGTTVTLTIRGVQAEDEADYYCQSADSSGTVFGGGTKLTVL
Broadly, the EC50 (read off the curve) is the concentration at which the effect is half-maximal. Broadly, the EC50 is the concentration that produces a half-maximal response. High values mean a need for much substance, low ones an effect from little substance. As usually defined, the Kd is the concentration at which binding is half-saturated. Low values mean a tighter complex, high ones a looser complex. Turning to B2, the results for the “EC50 (read off the curve)” value in [2] and in experiment [3] were approximately 7 ng/mL and approximately 300 ng/mL, respectively. The molecule further showed an EC50 in experiment [4] of 0.343 µg/mL. Moreover, the Kd in experiment [5] was 0.811 nM; in experiment [6], less than 1 pM. Further, the “IC50, neutralization of SARS-CoV-2pp on DBT-ACE2 cells” value in experiment [7] came out at 25.1 µg/mL.

B3: S304 rIgG1 (antibody, V domains shown)
VH: EVQLVESGGGLVQPGGSLRLSCAASGFTFSSYDMHWVRQTTGKGLEWVSTIGTAGDTYYPDSVKGRFTISREDAKNSLYLQMNSLRAGDTAVYYCARGDSSGYYYYFDYWGQGTLLTVSS
VL: DIQMTQSPSSLSAAVGDRVTITCRASQSIGSYLNWYQQKPGKAPKLLIYAASSLQSGVPSRFSGSGSGTDFTLTISSLQPEDFAIYYCQQSYVSPTYTFGPGTKVDIK
As to B3, the “EC50 (read off the curve)” value in experiment [2] was approximately 10 ng/mL; in [3], approximately 100 ng/mL. For the same molecule, the EC50 in experiment [4] came to 0.142 µg/mL. Moreover, the Kd in experiment [8] is 4.58 nM; in [9], 0.869 nM; in experiment [10] it was 0.869 nM; in experiment [11], 4.58 nM. Further, the “IC50, neutralization of SARS-CoV-2pp on DBT-ACE2 cells” value in experiment [12] was approximately 16.9 µg/mL.

B4: S306-rIgG1-LS (antibody, V domains shown)
VH: QVQLVQSGAEVKKPGASVKVSCKASTYTFTSFGISWVRQAPGQGLEWMGWITTYSGDTNYAQKFQGRVTMTTDTSTNTAYMELRSLRSDDTAVYYCASDYFDSSGYYHSFDYWGQGTLVTVSS
VL: EIVLTQSPDTLSLSPGERATLSCRASQSVSSYLAWYQQRPGQAPRLLIYDASKRATGIPARFSGSGSGTDFTLTISSLEPEDFAVYYCQQRSNWPPGCSFGQGTKVEIK
For the molecule B4, in [13], the binding result was “no binding (tested: 5 µg/ml)”.

The record behind these values is patent US20230331821A1 (VIR BIOTECHNOLOGY, published 2023).
